Source: patent US20100323375

Columns and labels:
FLAG-Alcalpha = molecular target: T1, FLAG-Alcalpha
T1 chain 1: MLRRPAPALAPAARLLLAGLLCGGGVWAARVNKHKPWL
T1 chain 2: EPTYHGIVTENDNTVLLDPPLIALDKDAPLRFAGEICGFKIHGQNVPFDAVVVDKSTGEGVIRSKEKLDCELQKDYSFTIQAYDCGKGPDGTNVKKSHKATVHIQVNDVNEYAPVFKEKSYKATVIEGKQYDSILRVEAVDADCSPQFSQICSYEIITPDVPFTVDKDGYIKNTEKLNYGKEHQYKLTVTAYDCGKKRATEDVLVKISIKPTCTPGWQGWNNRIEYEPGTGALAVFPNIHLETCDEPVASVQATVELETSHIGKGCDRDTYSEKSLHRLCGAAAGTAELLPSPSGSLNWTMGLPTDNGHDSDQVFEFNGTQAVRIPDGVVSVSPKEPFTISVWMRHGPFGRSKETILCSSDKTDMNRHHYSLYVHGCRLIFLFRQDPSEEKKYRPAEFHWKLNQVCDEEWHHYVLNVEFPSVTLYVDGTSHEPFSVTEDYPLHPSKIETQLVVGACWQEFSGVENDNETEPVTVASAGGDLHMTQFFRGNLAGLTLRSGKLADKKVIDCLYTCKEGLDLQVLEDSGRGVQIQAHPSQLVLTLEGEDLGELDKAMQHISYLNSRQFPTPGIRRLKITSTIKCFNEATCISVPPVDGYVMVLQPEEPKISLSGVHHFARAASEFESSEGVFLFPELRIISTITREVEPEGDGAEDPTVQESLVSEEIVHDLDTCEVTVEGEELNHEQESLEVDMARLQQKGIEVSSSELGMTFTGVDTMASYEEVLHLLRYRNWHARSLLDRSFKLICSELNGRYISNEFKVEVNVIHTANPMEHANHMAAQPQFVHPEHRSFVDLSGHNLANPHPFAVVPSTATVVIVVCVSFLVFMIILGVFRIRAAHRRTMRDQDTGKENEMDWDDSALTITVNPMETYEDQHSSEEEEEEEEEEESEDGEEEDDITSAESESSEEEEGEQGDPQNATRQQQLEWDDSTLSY

FLAG-Alcbeta = molecular target: T2, FLAG-Alcbeta
T2 chain 1: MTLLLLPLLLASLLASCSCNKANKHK
T2 chain 2: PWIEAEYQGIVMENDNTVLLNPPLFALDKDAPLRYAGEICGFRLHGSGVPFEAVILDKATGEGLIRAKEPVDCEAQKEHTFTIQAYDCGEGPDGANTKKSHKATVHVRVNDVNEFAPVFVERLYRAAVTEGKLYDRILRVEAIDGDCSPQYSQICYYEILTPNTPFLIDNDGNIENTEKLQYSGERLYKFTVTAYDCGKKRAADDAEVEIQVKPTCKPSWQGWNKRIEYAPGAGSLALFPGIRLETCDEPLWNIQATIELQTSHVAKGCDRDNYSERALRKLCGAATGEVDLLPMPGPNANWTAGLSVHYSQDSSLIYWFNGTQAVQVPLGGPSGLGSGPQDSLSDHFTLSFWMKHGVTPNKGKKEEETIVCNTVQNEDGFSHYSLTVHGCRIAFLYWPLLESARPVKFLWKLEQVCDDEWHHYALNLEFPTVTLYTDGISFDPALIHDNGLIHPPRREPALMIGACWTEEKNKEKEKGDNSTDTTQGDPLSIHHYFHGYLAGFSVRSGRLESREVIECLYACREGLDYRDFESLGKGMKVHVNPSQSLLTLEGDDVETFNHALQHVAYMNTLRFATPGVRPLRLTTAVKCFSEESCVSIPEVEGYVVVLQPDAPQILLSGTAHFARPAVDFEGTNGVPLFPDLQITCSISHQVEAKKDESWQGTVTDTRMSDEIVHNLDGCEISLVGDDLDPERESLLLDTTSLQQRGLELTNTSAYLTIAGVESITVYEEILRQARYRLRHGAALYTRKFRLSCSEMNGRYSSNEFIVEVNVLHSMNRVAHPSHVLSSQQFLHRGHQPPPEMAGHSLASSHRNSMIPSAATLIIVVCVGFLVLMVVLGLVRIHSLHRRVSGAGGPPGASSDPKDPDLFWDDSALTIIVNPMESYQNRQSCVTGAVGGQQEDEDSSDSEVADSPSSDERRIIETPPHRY

FLAG-Alcgamma = molecular target: T3, FLAG-Alcgamma
T3 chain 1: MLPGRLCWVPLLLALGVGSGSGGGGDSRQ
T3 chain 2: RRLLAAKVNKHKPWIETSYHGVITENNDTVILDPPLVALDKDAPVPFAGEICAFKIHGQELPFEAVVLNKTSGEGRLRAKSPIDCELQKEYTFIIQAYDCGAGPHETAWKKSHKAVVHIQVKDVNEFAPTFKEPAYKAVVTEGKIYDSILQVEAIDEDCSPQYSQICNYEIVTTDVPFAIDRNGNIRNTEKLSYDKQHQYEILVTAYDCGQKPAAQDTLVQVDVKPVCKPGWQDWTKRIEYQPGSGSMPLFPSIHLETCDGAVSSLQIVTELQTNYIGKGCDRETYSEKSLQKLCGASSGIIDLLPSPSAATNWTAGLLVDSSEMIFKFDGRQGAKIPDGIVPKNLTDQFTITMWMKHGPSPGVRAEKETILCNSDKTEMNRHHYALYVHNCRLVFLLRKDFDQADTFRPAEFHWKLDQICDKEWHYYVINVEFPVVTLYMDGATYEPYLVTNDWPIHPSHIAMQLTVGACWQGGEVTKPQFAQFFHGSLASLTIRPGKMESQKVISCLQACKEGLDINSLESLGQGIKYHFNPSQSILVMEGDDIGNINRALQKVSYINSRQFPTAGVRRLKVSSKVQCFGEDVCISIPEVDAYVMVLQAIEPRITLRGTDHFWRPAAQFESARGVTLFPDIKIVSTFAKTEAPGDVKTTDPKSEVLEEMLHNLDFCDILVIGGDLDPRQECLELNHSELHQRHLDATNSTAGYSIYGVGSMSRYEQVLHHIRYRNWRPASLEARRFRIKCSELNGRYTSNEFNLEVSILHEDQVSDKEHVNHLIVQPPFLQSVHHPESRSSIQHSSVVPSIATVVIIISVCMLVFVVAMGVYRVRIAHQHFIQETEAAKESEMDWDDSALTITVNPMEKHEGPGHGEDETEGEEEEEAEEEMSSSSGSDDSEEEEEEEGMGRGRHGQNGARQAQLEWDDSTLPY

Sequence of FLAG-APP, P05067 (P05067 whole entry, looked up): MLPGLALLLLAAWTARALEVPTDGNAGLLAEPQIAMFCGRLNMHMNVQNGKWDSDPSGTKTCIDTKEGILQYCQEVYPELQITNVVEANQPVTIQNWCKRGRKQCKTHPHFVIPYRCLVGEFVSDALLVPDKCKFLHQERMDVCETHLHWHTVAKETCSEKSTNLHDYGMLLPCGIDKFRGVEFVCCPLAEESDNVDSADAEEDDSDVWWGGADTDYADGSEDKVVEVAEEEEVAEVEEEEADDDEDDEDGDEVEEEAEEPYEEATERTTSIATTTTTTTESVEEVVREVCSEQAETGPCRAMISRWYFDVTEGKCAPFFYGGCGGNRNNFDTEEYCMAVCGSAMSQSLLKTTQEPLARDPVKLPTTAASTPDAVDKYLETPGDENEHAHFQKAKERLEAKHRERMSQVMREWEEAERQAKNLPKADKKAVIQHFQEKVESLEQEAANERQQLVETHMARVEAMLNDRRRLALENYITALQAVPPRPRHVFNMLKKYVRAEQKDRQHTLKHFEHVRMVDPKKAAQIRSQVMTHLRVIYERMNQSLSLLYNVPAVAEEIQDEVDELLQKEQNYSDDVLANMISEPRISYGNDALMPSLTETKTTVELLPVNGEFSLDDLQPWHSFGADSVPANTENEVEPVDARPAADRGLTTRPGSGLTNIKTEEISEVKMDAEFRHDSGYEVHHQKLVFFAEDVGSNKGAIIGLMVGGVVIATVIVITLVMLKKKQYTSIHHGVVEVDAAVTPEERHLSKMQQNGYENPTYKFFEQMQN

B1: ADAM10 (endogenous, mouse embryonic fibroblasts) (protein)
chain: TTLAERNTCQLYIQTDHLFFKYYGTREAVIAQISSHVKAIDTIYQTTDFSGIRNISFMVKRIRINTTSDEKDPTNPFRFPNIGVEKFLELNSEQNHDDYCLAYVFTDRDFDDGVLGLAWVGAPSGSSGGICEKSKLYSDGKKKSLNTGIITVQNYGSHVPPKVSHITFAHEVGHNFGSPHDSGTECTPGESKNLGQKENGNYIMYARATSGDKLNNNKFSLCSIRNISQVLEKKRNNCFVESGQPICGNGMVEQGEECDCGYSDQCKDDCCFDANQPEGKKCKLKPGKQCSPSQGPCCTAQCAFKSKSEKCRDDSDCAKEGICNGFTALCPASDPKPNFTDCNRHTQVCINGQCAGSICEKYDLEECTCASSDGKDDKELCHVCCMKKMAPSTCASTGSLQWSKQFSGRTITLQPGSPCNDFRGYCDVFMRCRLVDADGPLARLKKAIFSPQLYENIAEWIVAHWWAVLLMGIALIMLMAGFIKICSVHTPSSNPKLPPPKPLPGTLKRRRPPQPIQQPPRQRPRESYQMGHMRR
- amount of sAlcalpha secreted into the medium (western blot of anti-FLAG immunoprecipitate), ADAM10 (-/-) against (+/-) MEFs (FLAG-Alcalpha): The amounts of sAlcalpha, sAlcbeta, and sAlcgamma secreted by ADAM (-/-) MEFs were as low as that of APP
- amount of sAlcbeta secreted into the medium (western blot of anti-FLAG immunoprecipitate), ADAM10 (-/-) against (+/-) MEFs (FLAG-Alcbeta): The amounts of sAlcalpha, sAlcbeta, and sAlcgamma secreted by ADAM (-/-) MEFs were as low as that of APP
- amount of sAlcgamma secreted into the medium (western blot of anti-FLAG immunoprecipitate), ADAM10 (-/-) against (+/-) MEFs (FLAG-Alcgamma): The amounts of sAlcalpha, sAlcbeta, and sAlcgamma secreted by ADAM (-/-) MEFs were as low as that of APP
- amount of sAPP secreted into the medium (western blot of anti-FLAG immunoprecipitate), ADAM10 (-/-) against (+/-) MEFs (FLAG-APP, P05067): ADAM (-/-) MEFs secreted sAPP (lane 2 of FIG. 1D) 40% lower than ADAM (+/-) MEFs
